Experimental data reported in the DeepSol protein solubility set.

Experiment: soluble on expression in E. coli; label from the status in PepcDB or PDB records

Sequence | soluble on expression in E. coli
GGSVKKGRRSRRCGQCPGCQVPEDCGVCTNCLDKPKFGGRNIKKQCCKMRKCQNLQWMPSKAYLQKQAKAVK | soluble
SETETKTLPLENASILSEGSLQEGHRLWIGNLDPKITEYHLLKLLQKFGKVKQFDFLFHKSGALEGQPRGYCFVNFETKQEAEQAIQCLNGKLALSKKLVVRWAHAQVKRYDHNKNDKILPISLEPSSSTEPAQSNLSVTAKIKAIEAKLKMMAENPDAEYPAAPVYSYFKPPDKKRTTPYSRTAWKSRR | soluble
MRTIKLIIAYDGTAYAGFQRQPNGITIQQRLEEALRAVTGEPDLRIGAAAGRTDAGVHARGQVVHLRTYATIPIDRWPAALNGHLPDDIAVIGAEEAPPDFHARYWAREKRYRYTFCLSPYRLPMARLYSYHWHRPVDVDAMRRAAALLVGRHDFAAFRATGGSARTTVRTITRLTLTEEPPFLHLDVTADGFLYNMVRIIAGTLLEVGAGRRSLDRVAQALRHGRREDAGRTLPPHGLCLEEVVYGDGPSIPPWAAEAAPDVDLEP | soluble
GPGSMQRHRTPEPGPRGASSQNPRRPPQTSAKSPARRVSRRSSAATTSAPGGIELTRAQQIEAKAARDAVVGAMTKSSPQAAKMFVESISLDVDVETTRQLLCSKKGFVALPSSIGVLCRQLRKLDLSGNGLTDLSPLATLQHLSNLNVAHNGLLASLKGLSGTCLSVLNISFCAVESLEGLEHTALTLRTFIANDNRLQLHSPLLADVVATAGEDAAEMEAAREHLPESLCRSSSHSGADLRAVAQRNYAIFSTFQQCETVVLSRNTRLCQLFPTWGVEEVAAECGEVPGRSSAAADDEGSDDAADGASTTMSADGDGGDSANRGKKHRASAAKRRDRRRIAVHPTDRSASNTPAAAREPFGDSPEMATYNQRRHALALAHPLSVFERLSRLRKLSLSGCELHSLPVRWFLPMVTELRLAQNHLTSLQPDGVILRSLHILDISNNLFASVASLRRCRYLEQLNVRGNPLIEEGVLQDKAAGLTTAERIADVAATTPSSGTSAAPIAVQQRLLRLFPNMKLLDGQPMMTAGQVRSAYMQRNARSAAERQDKLTEKGCSDGSAIVASLHEARDDVGNAHAASDDSERGSSSGDAPRTAPTARAEARSPARKARRADSAVIAAEADEKDNVVEAPLSVVKTAHAQIVRRERVLLRPGAAAASGSNTGAAGQKRKAGQTPTSPAAVVYGQAAVAKLLEQSRSRSAW | not soluble
MKLIGITGMPGSGKSAITKLAEKYKIVVVSMGDVVRYETLKQGMPLNPENVGNTAVKLREIYGKEAIAVPCLNYVNEKYNNEDFVIIEGIRSIYEVNYIKKHAELDIIAIHSSPKTRFERLSGRNREDDSNDWNTFVERDERELNFSIGRVISLADYMVVNEGNYMDFVNDLENTFKKIINVN | not soluble
SLSPPVVMSRMFGAQLFNGTSADSGATVGFNPDYILNPGDSIQVRLWGAFTFDGALQVDPKGNIFLPNVGPVKVAGVSNSQLNALVTSKVKEVYQSNVNVYASLLQAQPVKVYVTGFVRNPGLYGGVTSDSLLNYLIKAGGVDPERGSYVDIVVKRGNRVRSNVNLYDFLLNGKLGLSQFADGDTIIVGPRQHTFSVQGDVFNSYDFEFRESSIPVTEALSWARPKPGATHITIMRKQGLQKRSEYYPISSAPGRMLQNGDTLIVSTDRYAGTIQVRVEGAHSGEHAMVLPYGSTMRAVLEKVRPNSMSQMNAVQLYRPSVAQRQKEMLNLSLQKLEEASLSAQSSTKEEASLRMQEAQLISRFVAKARTVVPKGEVILNESNIDSVLLEDGDVINIPEKTSLVMVHGEVLFPNAVSWQKGMTTEDYIEKCGGLTQKSGNARIIVIRQNGAAVNAEDVDSLKPGDEIMVLPKYESKNIEVTRGISTILYQLAVGAKVILSL | soluble
GAMDPMICLGLEGTAEKTGVGIVTSDGEVLFNKTIMYKPPKQGINPREAADHHAETFPKLIKEAFEVVDKNEIDLIAFSQGPGLGPSLRVTATVARTLSLTLKKPIIGVNHCIAHIEIGKLTTEAEDPLTLYVSGGNTQVIAYVSKKYRVFGETLDIAVGNCLDQFARYVNLPHPGGPYIEELARKGKKLVDLPYTVKGMDIAFSGLLTAAMRAYDAGERLEDICYSLQEYAFSMLTEITERALAHTNKGEVMLVGGVAANNRLREMLKAMCEGQNVDFYVPPKEFCGDNGAMIAWLGLLMHKNGRWMSLDETKIIPNYRTDMVEVNWIKEIKGKKRKIPEHLIGKGAEADIKRDSYLDFDVIIKERVKKGYRDERLDENIRKSRTAREARYLALVKDFGIPAPYIFDVDLDNKRIMMSYINGKLAKDVIEDNLDIAYKIGEIVGKLHKNDVIHNDLTTSNFIFDKDLYIIDFGLGKISNLDEDKAVDLIVFKKAVLSTHHEKFDEIWERFLEGYKSVYDRWEIILELMKDVERRARYVE | soluble
MIKASLVFFAFLALASGRRHHYDYYDCEPERGPRGREGREGPRGAQGAPGPNGTGFFWPGTCEQSDCPDGWISVNRKINNDVEKKWCINMFWNQATNDLYKTSEKVCNSYGGVMTGFKDKGEFISVFALLKNRFPNIKPVSQVMIGARRLETCASISNFGNCTITKGTKWTDLVMSIDSFFNELQQSARFSPLKKCIVANPTNLKLYVANCNVLESDYPQDLFMCGRFAPCKK | not soluble
MGSDKIHHHHHHMAKFIMVVGTSSNSGKTVLVSGICRMLSNKGYKVAPFKSQNMSLNSRVSVEDGEIAVAQYTQAMAARAEPSVHFNPILLKPKGNFVSQVIVHGNPYEDKDYNEYRSKKDDFLVKIKESIDYLDKNYDYVVIEGAGSCCEINLLNDDIANLKVAEIAGADAILVSDIDRGGVFASIYGTVQLLPENWKKLLKGFVINKFRGNIDVLKDGFEKIEELTNIPVIGTIPYDETLVLPEEDSQALDGKRVFGNLKSPIEVNVVKFSKIANFTDVDPFSSDCLMKYIDFNENITGDILILPGTRCSTVEMDLMKKYGMDKKILEFVENGGIVLGICGGYQALGKMLFDEDFSEGDVGTISGLGLFDMETTFGNKKAIKNSTGKISIFNQNFDVSGYELHEGYSVSNETPLISLSKGFGNCGDSYDGSFKMIGDSYIFGTYFHGILENFEFRNYLVNLARSKKNLSKIEDDTYAELFNENMDKLSKIIEENLDFSKIIG | not soluble
ATVKQPSIGRYTGKPNPSTGKYTVSFIEGDGIGPEISKSVKKIFSAANVPIEWESCDVSPIFVNGLTTIPDPAVQSITKNLVALKGPLATPIGKGHRSLNLTLRKTFGLFANVRPAKSIEGFKTTYENVDLVLIRENTEGEYSGIEHIVCPGVVQSIKLITRDASERVIRYAFEYARAIGRPRVIVVHKSTIQRLADGLFVNVAKELSKEYPDLTLETELIDNSVLKVVTNPSAYTDAVSVCPNLYGDILSDLNSGLSAGSLGLTPSANIGHKISIFEAVHGSAPDIAGQDKANPTALLLSSVMMLNHMGLTNHADQIQNAVLSTIASGPENRTGDLAGTATTSSFTEAVIKRL | soluble
MSLNRLSIPYSNKSLDYYFFVIQEASVKRAVLARSGEFQATNANFDNTRQLEQWQSLLLSRPSAIISDPIDSQAIVSAIRRYNREKIPVGIIDTPADGGDVAITVSFDNFQGGVMAAEEIVNRLITRYGRPKGTVLNCYGALASVAWRLRKEGMDSVFAKYPGITYLARPTDGQLEKMLSVTLSTLSEYPDLDAVHAPSDSPSRGIVTALQQKGRWKKIGEAGHVIFVNIDGEPIALKWIQDGYMDACISQDPVAYGEIAVDMIVKHALKGEAVPLGTYQDKKYFWESGEIVQGKTGPTLIIPAFVINRDNVQDPRHWASVAEKTWGIPEGHHHHHH | soluble
MASKKREVQLQSVVNSQNLWDEMLLNKGLTVIDVYQAWCGPCKAVQSLFRKLKNELNEDEILHFVVAEADNIVTLQPFRDKCEPVFLFSLNGKIIAKIQGANAPLINRKVITLIDEERKIVAGEMDRPQYVEIPLVDAIDEEYGEVQYESAAEVYNMAIIKPDAVLMRKNIEVREKIAKEGFVIEIQENLILPEEVVREFYTHIADQPDFEEFVVSMTNGLSCVLIVSQEDSEVIQEETLPQTDTEEEPGVLEEPHVRFAPVMIKKKRDSLQEYMDRQYMSDYCDVEDDAVKVFKLIDILFPDFKTMKSTNVQTTLALLHPDICEEEKDDVLNVIHNEGFTILMQRQIVLSEEEARTVCKIHENEEYFDNLIGHMTSNHSYVLALRRENGVEYWKTLIGPKTIEEAYASHPQSLCVQFASGNFPTNQFYGSSSKAAAEKEIAHFFPPQSTLALIKPHVTHKERIHRSSRR | not soluble
MQRVDLNSDLGESFGAYTIGQDDRVLEHVTSANIACGYHAGDHNVMARTVKLAADKGMGIGAHPGFPDLLGFGRRNIQTDHKDIYNFIVYQVAALNGFCQLHRVRMQHVKPHGALYNMAAKDRVIAEAIAEAIYDIDPSLILFGLSGSELIKAGKKLGLTVANEVFADRTYQPDGTLTPRSEANALIKESERATEQVIQMVKESKVIAVDGSHIPIEADTICVHGDSPTALSFIERLHAQLQVEGVTVTKVSDFLFKLEHHHHHH | not soluble
MPSKQDVLLLDYWDQWAEAYRINGKSINTVYRYKLFRKHLKSRFDGRKLNSIRPIEWQKFINDFAAGKDRKEKTTRKRPRERSKDIVTKMNSYVRGMVKAAINERILFSDFTFGTKTSGVRLEHHHHHH | not soluble
MSKVIIPKIVGHRGVGKEGLAPENTLRSFVLCMERNIPYIETDLRVCKTGEIVLFHGTPEGTIPFYKDGTSRIGDLSLEELKRLDVGGGHTIPSLEELFVAIEEQKFNLKLNLELKGEEWKRKESGDHQRLLLLVEKYHMQERVDYCSFHHEALAHLKALCPDVKITYLFNYMGQPTPLDFVEQTQKACYGDANGVSMLFHYLTKEQVCTAHEKGLSVTVWMPWIFDDSEEDWKKCLELQVDLICSNYPFGLMNFLSNISE | soluble
MAHHHHHHMRRSSSCLYKIPKNTGVAPRFDTWNEKYEPWEHLKRMGRLAGTGFYIPPEWYNHFRMFPPINHNFQQEKTLNPHNVSEPTQDDTDYLSVERIALRDELARKSRLLASEGMRYYNVFWIRKPLDRMERHYYELERKGVAHSVAIKRVLQMFYDELTVKKRVAAIQAEEAKLSGKYISMREATVLMGVLTQLQKEQLTPHQVTLLAKEQREKAQAGEAFAATVERSTETVADAAKDAAEGDEVMSADSLAELLSTEADLDDSSPSISYKVTIHETEHDSVKQLQELALDHTGKSDWYTGASPVLHMEEAMPAKRTPASKKTES | not soluble
MDILVLRVDVPKEGFARKLGAHETVFAADDGAVGKVQQLVEVLLRHERDFDEADGCRLKNIAVVLQGILRNNAALFEAVDDLRPRQQQCHRAACLSPHFQPLCPNIAPIAEKQPFGGVFFGQHQPLSQGFSIETDGFAVITFAYQPAAFFAETHKPKIFLNTLLRRRHQMQPFIAFLRAQIFPIQPKRLVSADNVQHIFGQVAGKSFDDDIGNRRGINICRIGMPSADMNILMNAGNIGQIRAKRTQGGHIVRPQMHLPTEFAVQNTGEPPRNADVAEIVDDLAKNPTDKRRSIHRNNGNGLKRAKIVEQIHNQQNNRNKQQHSLTFQIKLLFQMMLDGVEKDEFKQKRRFAGKDDAVDQMLEFVFGRIGGENGKRRQRDEADGKPADKQVSGHCKAFKKAKRHYRPKRTPCLTDAPEMPSEALPQENAAPPNL | not soluble
MGSDKIHHHHHHMSSNTFTLGTKSVNRLGYGAMQLAGPGVFGPPRDRHVAITVLREALALGVNHIDTSDFYGPHVTNQIIREALYPYSDDLTIVTKIGARRGEDASWLPAFSPAELQKAVHDNLRNLGLDVLDVVNLRVMMGDGHGPAEGSIEASLTVLAEMQQQGLVKHIGLSNVTPTQVAEARKIAEIVCVQNEYNIAHRADDAMIDALAHDGIAYVPFFPLGGFTPLQSSTLSDVAASLGATPMQVALAWLLQRSPNILLIPGTSSVAHLRENMAAEKLHLSEEVLSTLDGISRE | not soluble
AIALTYIILVLHLQNHVWEDVTVHNSSLPPLAIKHPECLGLLHQLERSTDVWIQHYCILKDGCLYFYASIRSTQASGGLYLQGYSVSEQTHGFEQPVIELKPSSEEFKTFYFCAENKTENQRWIAALKTSIKKWLPLDQAIQEFMSRPLEETRM | soluble
